Assay results taken from paper PMC3317874, “Palmitoylation and membrane cholesterol stabilize μ-opioid receptor homodimerization and G protein coupling” (BMC Cell Biology, 2012).

T1: YFP-fused wild-type μ-opioid receptor (OPRM1) (rat), P33535
T1 chain: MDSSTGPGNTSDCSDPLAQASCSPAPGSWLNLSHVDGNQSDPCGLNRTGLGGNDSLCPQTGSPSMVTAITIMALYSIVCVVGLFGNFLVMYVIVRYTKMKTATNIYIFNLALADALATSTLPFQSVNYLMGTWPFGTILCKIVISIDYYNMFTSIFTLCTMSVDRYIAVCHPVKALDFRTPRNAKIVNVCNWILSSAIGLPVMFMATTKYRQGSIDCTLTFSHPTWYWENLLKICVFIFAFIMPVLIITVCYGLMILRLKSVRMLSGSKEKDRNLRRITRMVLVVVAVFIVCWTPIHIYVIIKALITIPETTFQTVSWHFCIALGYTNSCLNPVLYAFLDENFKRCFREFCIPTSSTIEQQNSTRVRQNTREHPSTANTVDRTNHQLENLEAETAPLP


Assays:
Test in all cases: FRET or BRET; CFP and YFP constructs transiently transfected into HEK cells; normalized net FRET analysed on the cell membrane; also after 12 h of 0.5 μM simvastatin, simvastatin with 20 ng/ml cholesterol, or 50 μM 2-BP
[1] = molecular target: T1, YFP-fused wild-type μ-opioid receptor …; details: remark: other sources report otherwise
[2] = molecular target: T2, YFP-fused C170A mutant of μ-opioid receptor (OPRM1) (rat, UniProt P33535 1-398, C170A); details: partners not purified
T2 construct: μ-opioid receptor (OPRM1) with C3.55(170) mutated to alanine; also called YFPC170A; source: HEK cells, transiently transfected, in cells; not shown: YFP, C-terminal, kept

[3] = molecular target: T3, YFP-fused wild-type μ-opioid receptor (OPRM1) (rat, UniProt P33535 1-398, palmitoylated at C3.55(170)); details: partners not purified
T3 construct: μ-opioid receptor (OPRM1), wild type; also called YFPOPRM1; source: HEK cells, transiently transfected, in cells; not shown: YFP, C-terminal, kept

| normalized net FRET [1] | normalized net FRET [2] | normalized net FRET [3] | Binder |
| --- | --- | --- | --- |
| 0.49 |  |  | CFP-fused wild-type μ-opioid receptor (OPRM1), P33535 1-398 (receptor, here or on the partner: palmitoylated at C3.55(170); palmitoylated at C3.55(170)) MDSSTGPGNTSDCSDPLAQASCSPAPGSWLNLSHVDGNQSDPCGLNRTGLGGNDSLCPQTGSPSMVTAITIMALYSIVCVVGLFGNFLVMYVIVRYTKMKTATNIYIFNLALADALATSTLPFQSVNYLMGTWPFGTILCKIVISIDYYNMFTSIFTLCTMSVDRYIAVCHPVKALDFRTPRNAKIVNVCNWILSSAIGLPVMFMATTKYRQGSIDCTLTFSHPTWYWENLLKICVFIFAFIMPVLIITVCYGLMILRLKSVRMLSGSKEKDRNLRRITRMVLVVVAVFIVCWTPIHIYVIIKALITIPETTFQTVSWHFCIALGYTNSCLNPVLYAFLDENFKRCFREFCIPTSSTIEQQNSTRVRQNTREHPSTANTVDRTNHQLENLEAETAPLP |
|  | 0.3 |  | CFP-fused wild-type μ-opioid receptor (OPRM1) (receptor, rat, UniProt P33535 1-398, looked up, palmitoylated at C3.55(170), μ-opioid receptor (OPRM1), wild type; also called CFPOPRM1; source: HEK cells (also HEKOPRM1 and HEKC170A cells), transiently transfected, in living or fixed cells; not shown: CFP, C-terminal, kept) MDSSTGPGNTSDCSDPLAQASCSPAPGSWLNLSHVDGNQSDPCGLNRTGLGGNDSLCPQTGSPSMVTAITIMALYSIVCVVGLFGNFLVMYVIVRYTKMKTATNIYIFNLALADALATSTLPFQSVNYLMGTWPFGTILCKIVISIDYYNMFTSIFTLCTMSVDRYIAVCHPVKALDFRTPRNAKIVNVCNWILSSAIGLPVMFMATTKYRQGSIDCTLTFSHPTWYWENLLKICVFIFAFIMPVLIITVCYGLMILRLKSVRMLSGSKEKDRNLRRITRMVLVVVAVFIVCWTPIHIYVIIKALITIPETTFQTVSWHFCIALGYTNSCLNPVLYAFLDENFKRCFREFCIPTSSTIEQQNSTRVRQNTREHPSTANTVDRTNHQLENLEAETAPLP |
|  | 0.07 | 0.27 | CFP-fused C170A mutant of μ-opioid receptor (OPRM1) (receptor, rat, UniProt P33535 1-398, looked up, μ-opioid receptor (OPRM1) with C3.55(170) mutated to alanine; also called CFPC170A; source: HEK cells (also HEKOPRM1 and HEKC170A cells), transiently transfected, in cells; not shown: CFP, C-terminal, kept) MDSSTGPGNTSDCSDPLAQASCSPAPGSWLNLSHVDGNQSDPCGLNRTGLGGNDSLCPQTGSPSMVTAITIMALYSIVCVVGLFGNFLVMYVIVRYTKMKTATNIYIFNLALADALATSTLPFQSVNYLMGTWPFGTILCKIVISIDYYNMFTSIFTLCTMSVDRYIAVAHPVKALDFRTPRNAKIVNVCNWILSSAIGLPVMFMATTKYRQGSIDCTLTFSHPTWYWENLLKICVFIFAFIMPVLIITVCYGLMILRLKSVRMLSGSKEKDRNLRRITRMVLVVVAVFIVCWTPIHIYVIIKALITIPETTFQTVSWHFCIALGYTNSCLNPVLYAFLDENFKRCFREFCIPTSSTIEQQNSTRVRQNTREHPSTANTVDRTNHQLENLEAETAPLP |
